From paper PMC7950211 (2021)

Columns and labels:
Assay in all cases: SPR
[1] = target: T1, parasite-infected erythrocyte surface protein 15 (PIESP15), P. falciparum, recombinant ectodomain (P. falciparum, biotin (enzymatic monobiotinylation of the bait form))
T1 chain: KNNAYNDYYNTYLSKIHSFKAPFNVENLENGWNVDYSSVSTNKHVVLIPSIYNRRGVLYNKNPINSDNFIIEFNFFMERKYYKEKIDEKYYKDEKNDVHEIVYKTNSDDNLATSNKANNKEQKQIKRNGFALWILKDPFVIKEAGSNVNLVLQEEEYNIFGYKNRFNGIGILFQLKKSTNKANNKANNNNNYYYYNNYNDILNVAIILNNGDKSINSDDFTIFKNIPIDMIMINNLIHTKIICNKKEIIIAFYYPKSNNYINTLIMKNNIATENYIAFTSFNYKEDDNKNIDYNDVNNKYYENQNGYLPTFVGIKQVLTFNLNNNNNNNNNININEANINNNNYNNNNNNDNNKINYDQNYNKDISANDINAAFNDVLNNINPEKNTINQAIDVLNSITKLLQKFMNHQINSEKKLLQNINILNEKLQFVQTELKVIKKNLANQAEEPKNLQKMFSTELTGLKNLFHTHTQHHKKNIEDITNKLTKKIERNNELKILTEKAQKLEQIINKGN

[2] = target: T2, PF3D7_0526900, P. falciparum p24 family protein, recombinant ectodomain (P. falciparum, biotin (enzymatic monobiotinylation of the bait form))
T2 chain: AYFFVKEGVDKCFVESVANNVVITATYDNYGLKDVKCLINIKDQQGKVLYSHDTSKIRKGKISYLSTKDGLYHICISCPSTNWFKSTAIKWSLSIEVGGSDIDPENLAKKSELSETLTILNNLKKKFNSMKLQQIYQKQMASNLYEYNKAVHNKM

[3] = target: T3, PF3D7_0721100, P. falciparum predicted secreted protein, recombinant (P. falciparum, biotin (enzymatic monobiotinylation))
T3 chain: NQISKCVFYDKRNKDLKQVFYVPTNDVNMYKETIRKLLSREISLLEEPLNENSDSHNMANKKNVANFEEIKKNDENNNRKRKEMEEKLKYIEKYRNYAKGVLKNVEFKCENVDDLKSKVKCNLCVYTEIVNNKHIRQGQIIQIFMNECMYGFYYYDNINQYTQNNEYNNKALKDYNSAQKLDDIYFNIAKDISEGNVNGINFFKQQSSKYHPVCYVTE

B1: PF3D7_0702900, P. falciparum secreted protein with tandem EF-hand domains, recombinant (natural protein)
chain: QDNKNKVEETHEEQGEMTQEEKDEIYSEFVDYDLNKDGLIDAEEIVVTLKNMKKADFINFFNKVDLDSSGTISIDEYMLFINSN
modifications: biotin (enzymatic monobiotinylation of the bait form)
- koff [1]: 0.035 s⁻¹

B2: PF3D7_0422100, P. falciparum p24 family protein, recombinant ectodomain (domain or fragment)
chain: NFVLSNANTNNVNKNGANKKNNANNNNMNKAGDKKKATKGKKGNANDNVNEFNFNFNDLLNEINNAATNDNNNNNNDNNNDNNNNNNNNNNNYNGKNEINENNFNEEYNKLEKNFQMNAEDDDNNRGDINMDQFNEKKNNLNEDNNKMKPNANDYQYNENDADTDSEEDLTNIWNKNMQNFEPSTLLTFEIPSNSEEYLFEEVPEVNTYFRGVFYSNNEADDNIIEFLISDPDGQVIYKKEASEGIFYFYTKKVGIYTLTLKNNKWMGKKLTTVALGLGENPSLRSDHVKDFTNYIQRIVAETKKLKNEIKYLSSKHMRHIEKMKKITNK
modifications: biotin (enzymatic monobiotinylation of the bait form)
- koff [2]: 0.23 s⁻¹

B3: CelTOS, P. falciparum, recombinant (natural protein)
chain: FRGNNGHNSASSLYNGAQFIEQLNNAFTSAFLESQSMNKIGDDLAETISNELVSVLQKNSPTFLESSFDIKSEVKKHAKSMLKELIKVGLPSFENLVAENVKPPKVDPATYGIIVPVLTSLFNKVETAVGAKVSDEIWNYNSPDVSESEESLSDDFFD
modifications: biotin (enzymatic monobiotinylation of the bait form)
- koff [3]: 0.025 s⁻¹
